Measured values: PMC8837555, “CRISPR and biochemical screens identify MAZ as a cofactor in CTCF-mediated insulation at Hox clusters”

B1: maz.hoxd48 (WT) (dsDNA)
DNA 1: CCTGGGTGGGAGGGGAATGGGAGGACACAAGAGCCACCCGTTCTTCTGCCCCGCCTTCCACCTCAG
DNA 2: CTGAGGTGGAAGGCGGGGCAGAAGAACGGGTGGCTCTTGTGTCCTCCCATTCCCCTCCCACCCAGG
B2: maz.hoxa56.WT (dsDNA)
DNA 1: GGAGTTGGGTGGAGGCAAGAGGGGTGGCGCGCGCGCCCTG
DNA 2: CAGGGCGCGCGCGCCACCCCTCTTGCCTCCACCCAACTCC

Target: T1, FLAG-MAZ (Mus musculus, UniProt P56671 1-477)
T1 sequence: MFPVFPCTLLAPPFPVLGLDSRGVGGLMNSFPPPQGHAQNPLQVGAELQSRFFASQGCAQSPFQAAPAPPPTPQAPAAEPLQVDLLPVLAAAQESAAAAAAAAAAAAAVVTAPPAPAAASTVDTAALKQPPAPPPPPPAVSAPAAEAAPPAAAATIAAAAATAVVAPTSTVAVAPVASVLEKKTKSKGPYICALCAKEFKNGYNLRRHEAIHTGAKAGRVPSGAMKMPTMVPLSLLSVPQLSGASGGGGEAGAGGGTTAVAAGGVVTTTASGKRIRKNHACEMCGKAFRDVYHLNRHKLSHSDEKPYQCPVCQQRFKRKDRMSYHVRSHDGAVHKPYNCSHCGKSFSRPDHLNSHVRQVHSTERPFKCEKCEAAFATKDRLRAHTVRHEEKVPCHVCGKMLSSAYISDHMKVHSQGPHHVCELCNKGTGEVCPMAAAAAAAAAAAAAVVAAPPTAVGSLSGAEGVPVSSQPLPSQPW
Assay: EMSA; 1 mM ZnSO4, 5 mM MgCl2, salmon sperm DNA; 25 mM HEPES (pH not stated), 50 mM NaCl, 5% glycerol, 5 mM MgCl2, 1 mM ZnSO4, 2 μg salmon sperm DNA, 40 pM probe, 0.25-0.75 μg MAZ, 4 h at 30 °C; 5% gel, 0.25x
Settings: protein: recombinant; tags: FLAG (CβF vector); label: 32P (T4 PNK); blunt

Binder | binding result
B1 | binds
B2 | binds
